The values below come from article PMC11756078, “Effects of genetic ablation and pharmacological inhibition of HuR on gene expression, iron metabolism, and hormone levels” (BMC Biology, 2025).

pIC50: −log10 of the molar value.

The subject of series [1] is mCherry-HuR (human (HeLa HuR KO cells; HuR species implied)?). The series can be described thus: RP-CONA (on-bead RNA pull-down, confocal imaging). Particulars: Anisotropy: phosphate buffer pH 7.5, 25 mM MgCl (so in the source), 250 mM NaCl, 0.1% Tween 20, 5 mM DTT, temperature not stated, RP-CONA: cell extract on ….
The subject of series [2] is HuR (ELAV-like protein 1), recombinant (human). The series can be described thus: fluorescence anisotropy. As to conditions: Anisotropy: phosphate buffer pH 7.5, 25 mM MgCl (so in the source), 250 mM NaCl, 0.1% Tween 20, 5 mM DTT, temperature not stated; RP-CONA: cell extract on …. Background: In fluorescence polarisation assays a small probe gives low polarisation when free and higher when bound to something large.

Series [3] concerns the target HuR (Recombinant Human Elav-like protein 1, ELAVL1/HuR) (Homo sapiens, UniProt Q15717). The series can be described thus: fluorescence anisotropy, displacement of pri-miR-7-1 CTL 6-FAM RNA from purified recombinant HuR; RP-CONA in HeLa extracts gave IC50 […]. The format is binding.

Chain of HuR (Recombinant Human Elav-like protein 1, ELAVL1/HuR) (Q15717 2-326): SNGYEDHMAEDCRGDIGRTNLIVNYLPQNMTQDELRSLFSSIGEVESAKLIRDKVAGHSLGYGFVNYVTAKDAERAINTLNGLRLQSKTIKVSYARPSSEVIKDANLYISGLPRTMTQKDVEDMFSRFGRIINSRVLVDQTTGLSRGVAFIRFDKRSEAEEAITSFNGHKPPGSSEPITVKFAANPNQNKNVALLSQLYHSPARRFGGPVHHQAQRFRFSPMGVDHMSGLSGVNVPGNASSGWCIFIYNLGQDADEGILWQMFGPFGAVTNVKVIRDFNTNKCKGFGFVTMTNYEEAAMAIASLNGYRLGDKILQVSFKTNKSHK

By pIC50 is commonly meant the negative decadic logarithm of the IC50, by convention in mol/L. In turn, “pri-miR-7 CTL (pri-miR-7-6-FAM), RP-CONA” had a binding signal in series [1] (20 uM Eltrombopag) of 80 % inhibition. The pIC50 in series [1] (IC50 is of Eltrombopag (0-50 uM) inhibiting the complex, not HuR affinity) was 5.23.

For pri-miR-7-1-6-FAM CTL, anisotropy, the pIC50 in series [2] is 4.72.

Turning to `CC1=NN(c2ccc(C)c(C)c2)C(=O)/C1=N\Nc1cccc(-c2cccc(C(=O)O)c2)c1O` [E20, Eltrombopag], the pIC50 in series [3] was 4.72.
